Measured values: patent US11230581B2, “Peptides and combination of peptides for use in immunotherapy against ovarian cancer and other cancers” (Immatics Biotechnologies GmbH, priority 2015, dated 2022)

Biological target: HLA-A*02:01 (Homo sapiens, UniProt P04439, D140Y/D185E/D98H/E176V/E277Q/G131W/G231S/I119V/I121R/I166T/I218V/L300P/L318F/N151K/N90K/P208A/P217A/Q86G/Q94H/R138H/R169H/T345S)
Test: MHC binding assay (UV-ligand exchange, β2m ELISA, peptide exchange yield)
Details: binding of HLA-class I restricted peptides to HLA-A*02:01, UV-ligand exchange
Source text: Candidate peptides for T cell based therapies according to the present invention were further tested for their MHC binding capacity (affinity). The individual peptide-MHC complexes were produced by UV-ligand exchange, where a UV-sensitive peptide is cleaved upon UV-irradiation, and exchanged with the peptide of interest as analyzed. Only peptide candidates that can effectively bind and stabilize the peptide-receptive MHC molecules prevent dissociation of the MHC complexes. To determine the yield of the exchange reaction, an ELISA was performed based on the detection of the light chain (β2m) of stabilized MHC complexes. The assay was performed as generally described in Rodenko et al. (Rodenko et al., 2006).
96 well MAXISorp plates (NUNC) were coated over night with 2 ug/ml streptavidin in PBS at room temperature, washed 4× and blocked for 1h at 37° C. in 2% BSA containing blocking buffer. […] Peptide-MHC monomers of the UV-exchange reaction were diluted 100 fold in blocking buffer. Samples were incubated for 1 h at 37° C., washed four times, incubated with 2 ug/ml HRP conjugated anti-β2m for 1h at 37° C., washed again and detected with TMB solution that is stopped with […]. Absorption was measured at 450 nm. Candidate peptides that show a high exchange yield (preferably higher than 50%, most preferred higher than 75%) are generally preferred for a generation and production of antibodies or fragments thereof, and/or T cell receptors or fragments thereof, as they show sufficient avidity to the MHC molecules and prevent dissociation of the MHC complexes.

Peptide exchange (MHC class I binding score, peptide exchange yield)	Substance
“+++” (≥50 = +++)	607 (RLYSGISGLEL; listed as Homo sapiens) [compound 607]
“++” (≥20% = ++)	447 (QLVPALAKV; listed as Homo sapiens) [compound 447]
“+++” (≥50 = +++)	612 (YLYNEGLSV; listed as Homo sapiens) [compound 612]
“++” (≥20% = ++)	400 (SLLTEQDLWTV; listed as Homo sapiens) [compound 400]
“+++” (≥50 = +++)	525 (VLLEAGEGLVTI; listed as Homo sapiens) [compound 525]
“+++” (≥50 = +++)	541 (SMLEPVPEL; listed as Homo sapiens) [compound 541]
“+++” (≥50 = +++)	509 (FLFDTKPLIV; listed as Homo sapiens) [compound 509]
“++++” (≥75% = ++++)	395 (ALALGGIAVV; listed as Homo sapiens) [compound 395]
“++” (≥20% = ++)	565 (ALQETPTSV; listed as Homo sapiens) [compound 565]
“++” (≥20% = ++)	559 (VTVPPGPSL; listed as Homo sapiens) [compound 559]
“+++” (≥50 = +++)	315 (YLQDVVEQA; listed as Homo sapiens) [compound 315]
“++” (≥20% = ++)	526 (RLAEVGQYEQV; listed as Homo sapiens) [compound 526]
“+++” (≥50 = +++)	383 (ALLELENSVTL; listed as Homo sapiens) [compound 383]
“++++” (≥75% = ++++)	358 (ALDEYTSEL; listed as Homo sapiens) [compound 358]
“+++” (≥50 = +++)	601 (SAFPFPVTV; listed as Homo sapiens) [compound 601]
“++” (≥20% = ++)	491 (GLNDRSDAV; listed as Homo sapiens) [compound 491]
“+++” (≥50 = +++)	610 (LLAPTPYIIGV; listed as Homo sapiens) [compound 610]
“++” (≥20% = ++)	504 (GLSDGNPSL; listed as Homo sapiens) [compound 504]
“+++” (≥50 = +++)	468 (YLRSVGDGETV; listed as Homo sapiens) [compound 468]
“++” (≥20% = ++)	428 (KLGHTDILVGV; listed as Homo sapiens) [compound 428]
“+++” (≥50 = +++)	573 (ILVANAIVGV; listed as Homo sapiens) [compound 573]
“+++” (≥50 = +++)	391 (YVYPQRLNFV; listed as Homo sapiens) [compound 391]
“+++” (≥50 = +++)	314 (ALIAEGIALV; listed as Homo sapiens) [compound 314]
“+++” (≥50 = +++)	622 (RLLGEEVVRVLQA; listed as Homo sapiens) [compound 622]
“+++” (≥50 = +++)	397 (YLFGERLLEC; listed as Homo sapiens) [compound 397]
“++” (≥20% = ++)	372 (TMLLNIPLV; listed as Homo sapiens) [compound 372]
“++++” (≥75% = ++++)	387 (ALFQATAEV; listed as Homo sapiens) [compound 387]
“+++” (≥50 = +++)	490 (FLLQHVQEL; listed as Homo sapiens) [compound 490]
“+++” (≥50 = +++)	477 (ALLPASGQIAL; listed as Homo sapiens) [compound 477]
“+++” (≥50 = +++)	518 (KLNAEVACV; listed as Homo sapiens) [compound 518]

More lines, now with the values behind:

Substance	Peptide exchange (MHC class I binding score, peptide exchange yield)
195 (GLFADLLPRL; listed as Homo sapiens) [compound 195]	“+++” (≥50 = +++)
269 (RVLEVGALQAV; listed as Homo sapiens) [compound 269]	“++” (≥20% = ++)
167 (KVLEVTEEFGV; listed as Homo sapiens) [compound 167]	“+++” (≥50 = +++)
44 (ILDPISSGFLL; listed as Homo sapiens) [compound 44]	“++” (≥20% = ++)
135 (ALSEVDFQL; listed as Homo sapiens) [compound 135]	“+++” (≥50 = +++)
6 (VLVSDGVHSV; listed as Homo sapiens) [compound 6]	“+++” (≥50 = +++)
129 (GLLDGGVDILL; listed as Homo sapiens) [compound 129]	“+++” (≥50 = +++)
270 (LLLDEEGTFSL; listed as Homo sapiens) [compound 270]	“++” (≥20% = ++)
106 (LLYDAVHIVSV; listed as Homo sapiens) [compound 106]	“+++” (≥50 = +++)
124 (ALYETELADA; listed as Homo sapiens) [compound 124]	“++” (≥20% = ++)
266 (KITDTLIHL; listed as Homo sapiens) [compound 266]	“+++” (≥50 = +++)
212 (ALWDQDNLSV; listed as Homo sapiens) [compound 212]	“++” (≥20% = ++)
251 (ALYTGFSILV; listed as Homo sapiens) [compound 251]	“++” (≥20% = ++)
194 (ALPLFVITV; listed as Homo sapiens) [compound 194]	“+++” (≥50 = +++)
225 (SLLKVLPAL; listed as Homo sapiens) [compound 225]	“+++” (≥50 = +++)
148 (ALNPEIVSV; listed as Homo sapiens) [compound 148]	“++” (≥20% = ++)

Substance	Peptide exchange (MHC class I binding score, peptide exchange yield)
132 (LLVEQPPLAGV; listed as Homo sapiens) [compound 132]	“+++” (≥50 = +++)
247 (VLLPNDLLEKV; listed as Homo sapiens) [compound 247]	“+++” (≥50 = +++)
125 (VQIHQVAQV; listed as Homo sapiens) [compound 125]	“+++” (≥50 = +++)
115 (AIAGAGILYGV; listed as Homo sapiens) [compound 115]	“++” (≥20% = ++)
239 (AAFAGKLLSV; listed as Homo sapiens) [compound 239]	“+++” (≥50 = +++)
150 (RLWEEGEELEL; listed as Homo sapiens) [compound 150]	“+++” (≥50 = +++)
265 (LLFGGTKTV; listed as Homo sapiens) [compound 265]	“++” (≥20% = ++)
59 (IMEDIILTL; listed as Homo sapiens) [compound 59]	“+++” (≥50 = +++)
71 (GILARIASV; listed as Homo sapiens) [compound 71]	“+++” (≥50 = +++)
47 (ILLSVPLLVV; listed as Homo sapiens) [compound 47]	“++” (≥20% = ++)
81 (FLFSQLQYL; listed as Homo sapiens) [compound 81]	“++” (≥20% = ++)
61 (FLQGYQLHL; listed as Homo sapiens) [compound 61]	“++++” (≥75% = ++++)
179 (KVLNELYTV; listed as Homo sapiens) [compound 179]	“+++” (≥50 = +++)
184 (YLMDINGKMWL; listed as Homo sapiens) [compound 184]	“+++” (≥50 = +++)
192 (KMLDGASFTL; listed as Homo sapiens) [compound 192]	“+++” (≥50 = +++)
